In the DeepSol protein solubility set:

Assay: soluble on expression in E. coli; label from the status in PepcDB or PDB records

Sequence | soluble on expression in E. coli
GFPERELPRPGASRPAEKSRPPEAKGAQPADAWKAGRPRSEEDNELNLPNLAAAYSSILRSLGEDPQRQGLLKTPWRAATAMQFFTKGYQETISDVLNDAIFDEDHDEMVIVKDIDMFSMCEHHLVPFVGRVHIGYLPNKQVLGLSKLARIVEIYSRRLQVQERLTKQIAVAITEALQPAGVGVVIEATHMCMVMRGVQKMNSKTVTSTMLGVFREDPKTREEFLTLIRS | soluble
MADPNESGLSKSVEIGGISDKLDSMKLSKSKLTFTDLPMDALYECFKQLDYLERMPLRKVCRKFKNAVDGMDPGFKKIRICIYEPEAFDVEFDSNLFYFVKESGNATHYSKFNPRKMLKWKFGNGEDSLEVVMKFVTKMMNFSKYCCKLIERILKQSAYPNLKKIHLFGLNSRQTPSILRHFKPGKLEFLWSDSFNAETMKEMYKLDQWKMAKSQFENIKIRDQCAPGIPSTFGYLWNYHRYAKLVTVGKAVEIKNCLMKSTNFKKWEFCMGMSLDAARVFDPNASGFEISRDGGVKGTIRCLFKGHSVKIDFSPWKFEITKE | not soluble
MATIGTFKKSGNEFSGEIVTLSVQAKGVRIVPESNRSGDNAPSHRVYVGRAEIGAAWSKTSNEGREYLGLKLDDPSFTAPIYANLFDDEEGDTFSLIWSRAAKRNGD | not soluble
MIALGIEGTAWSLSIGVVDEEGVIALENDPYIPKEGGIHPREASQHHSERLPSLLSRVFEKVDKNSIDVVAFSQGPGMGPCLRVVATAARLLAIKLEKPLVGVNHCLAHVEVGRWQTGARKPVSLYVSGGNSQVIARRGNRYRVFGETLDIGIGNALDKLARHMGLKHPGGPKIEELAKKGQKYHFLPYVVKGMDFSFSGMVTAAQRLFDSGVRMEDVAFSFQETAFAMLTEVTERALAYLDLNEVLLVGGVAANKRLQEMLRIMCEDRGAKFYVPPKELAGDNGAMIAYTGLLMYKHGHQTPVEKSYVRPDFRIEDVEVNWD | soluble
ATTPSANQNWRLLRDESAQLRIADVLQRKEQFRPLAKRSFIFPASPQAVWLQVQLPAQKVPSWLWIFAPRVQYLDYYLVQDGQLVRDQHTGESRPFQERPLPSRSYLFSLPVDGKPMTLYVRMTSNHPLMAWFDQIDEAGLVGLE | soluble
MVNRLINSRSPYLRKAANQPVEWFEWGEEAFAKAKKEDKPILLSIGGVWCHWCHVMAKESFENEEIAEMINRNFVAIKVDRDERPDIDKRYQEFVMATTGSGGWPLTVFLTPDGKPFFGGTYFPPEDRYHLPGFKTVLRKIAEMWRHDRERLLKSAEELTEAVRRYAE | not soluble
MGSDKIHHHHHHMEMIMRPDRSLFIVEDDATFAKTLKRSFEKRDYDVVVCHGREDLLGALETAVPAYAVVDLKLGARGSGLECVKLLSARDTSMRIVVLTGFASIATAVEAIKLGACHYLAKPANTDDIEAAFGRAEGDVSVSLSSRPTSIKNLEWERIHETLVETGFNISETARRLGLHRRTLARKLEKRVVR | not soluble
SSFSWDNCDEGKDPAVIRSLTLEPDPIIVPGNVTLSVMGSTSVPLSSPLKVDLVLEKEVAGLWIKIPCTDYIGSCTFEHFCDVLDMLIPTGEPCPEPLRTYGLPCHCPFKEGTYSLPKSEFVVPDLELPSWLTTGNYRIESVLSSSGKRLGCIKIAASLKGI | soluble
MVLAIAGCIEAYRTGHDARHGPRVPWERRLSEEDYLARLAAGSVSYSRDVQPILDSRCVVCHGCYDAPCQLKLESFDGLERGASKTPVYDTTRLQATPPTRLFIDAENVQGWRSKGFFPVLNERGDSPEANLRDSLLFRMLELKKAHPLPVSGALPDTFDFRLDRTLNCPTVEEFDDFEDDHPEWGMPYGFPGLSEREHDIVVKWLREGGFAPPPAPVSAEAASAVAQWEAFLNGSSPKERLFARYVYEHLFLGHLHFRGLAPREFFRLVRSRTPPGEPIREIATTRPYDSPGPGEFYYRLRPVQQSIVAKTHMVYELDDARMRRYRELFLDPEYAVDRLPGYAAADAANPFKTFVAIPPRSRYRFLLDDAHFFFSGFMKGSVCRGQAALNVIQDRFWVAFTHPDADPVSNDAQFLADQAERLRLPAEKENSPGIGDIWYTYRALEEDYQAAKAAWLRAHGERGGTTLADLWDGDGDNRDALLTVFRHFDSASVERGLVGDTPLTGWVVDYPLLERIHYLLVAGFDVFGNVGHQLATRLYMDFMRMEAENNFLRFLPSSIRQAERARWYKGIGARINDLWQSPRWGMGGETLIDYRTGNPKQEFFDRVRAGFGKAAGRPDPFTGCGVEVEGCGEGGEPALPPVQASVERELRRLAFARGGGVAFLPELSYLRIRTGSGGAEDGWIYSLVKNTALENVSMLFLEEIRRTPADDTVTLVRGIVGSYPNFFFDLDAAEVGEFVDAILSVDGSKAFGRRLVERFGVRRSNPAFWRISDWFNRRYLEASPVTAGWLDLSRYDNPLEHHHHHH | not soluble
MERKSPSGKKFRSKPQLARYLGGSMDLSTFDFRTGKMLMSKMNKSRQRVRYDSSNQVKGKPDLNTALPVRQTASIFKQPVTKITNHPSNKVKSDPQKAVDQPRQLFWEKKLSGLNAFDIAEELVKTMDLPKGLQGVGPGCTDETLLSAIASALHTSTMPITGQLSAAVEKNPGVWLNTTQPLCKAFMVTDEDIRKQEELVQQVRKRLEEALMADMLAHVEELARDGEAPLDKACAEDDDEEDEEEEEEEPDPDPEMEHV | soluble
DTVANASGPLMVEIVKTPGSALGISLTTTSLRNKSVITIDRIKPASVVDRSGALHPGDHILSIDGTSMEHCSLLEATKLLASISEKVRLEILPVPQSQRPLRPS | soluble
MPTPAYMRIEGEKQGLITAGTFTEDSVGNIYQEGHEDEVLVQGFEHQVLLPRDPQSGQPTGQRVHKPVRITKVFDKASPLMYNALTSGEKLPKVEIKWYRTSATGTQEHYFTTVLHDAIIVDITASMPNCQDPSQAHFTHLEDVFMTYRAIDWTHEVAGTSGNDDWRTAMKA | soluble
MAAETKVQVSDPEAEFLNSKQETGYEWELFKENVRPLKRGRNVGILNHALKSHSDHQLRKNLIEKRRNLIEAIDEYEGDDPLSPWIECIKWVQEAFPPGGECSGLLVIYEQCVRKFWHSERYKDDLRYLKVWLEYAEHCADAEVIYKFLEVNEIGKTHAVYYIAYALHIEFKNKVKTANEIFNLGISRDAKPVEKLNDAYKKFMVRTMRRSNTADEEPKENNDLPSRSFGTLLSRGDNNARRQALGSSNPQAKKLKPNQSSKTPFAIYADAVSDTTSGNQPESDKSRPEFGSWLMLGGRAERNKENNSLPRKWASFKVPQKPIVRTVAAASASTFEVFVDEEECTEEEEEKKKNDETISSSSNVLPLNGGREIKKETELLRQNPLRHFPPNSFLR | not soluble
MTTLYSIQEKYQQLLNLAEQLDPEALKDTLESIEDELETKAENVAFVIKELEGQSLILDVEIKRLSERKNTINNNVKRLKQSLHDAMLVANKQKIKTNLFTLDIRKNPHSVFVEDESKLINYLVEQPKKLDKTKLKDDLKKGIDVPGAVLVQTERLQIK | not soluble
MSFTPELNMAVCEFNLDSGCNAKESLIEMANNKISLETFKEHNIKALTMKYVNSESMMWEARKIVRIISRLEADEHQSRVAPKRSRSPGSTSPSASNSSSSSSELSFDMFSSKRTVPMKVTSKPKRVIAQASRTMKPHQQESRQESAEKDRANDEKLKKFIESRKLKEQAKKAANIQKCNEVKEAVMFPAKRMKKRQLEQYAYRFK | not soluble
MTDERYGYIHASMLPTQCLCTKLRRAARSVSRFYDEALADTGLKVAQFSLLRHLRRLDRPSISELAEAMGLDRSTLGRNLRVLEGDGLLRLTGGEDQRNRLVELTPAGLDALERGTPAWEDAQRRLAGRLGEERSGALAALLAELERLD | not soluble
MNMQKLRIELGEETNDELYDLLLLADPSKDIVDEYLERGECYTAWAGDELAGVYVLLKTRPQTVEIVNIAVKESLQKKGFGKQLVLDAIEKAKKLGADTIEIGTGNSSIHQLSLYQKCGFRIQAIDHDFFLRHYDEDIFENGIQCRDMVRLYLDLLEHHHHHH | soluble
MTKVSVVGAAGTVGAAAGYNIALRDIADEVVFVDIPDKEDDTVGQAADTNHGIAYDSNTRVRQGGYEDTAGSDVVVITAGIPRQPGQTRIDLAGDNAPIMEDIQSSLDEHNDDYISLTTSNPVDLLNRHLYEAGDRSREQVIGFGGRLDSARFRYVLSEEFDAPVQNVEGTILGEHGDAQVPVFSKVSVDGTDPEFSGDEKEQLLGDLQESAMDVIERKGATEWGPARGVAHMVEAILHDTGEVLPASVKLEGEFGHEDTAFGVPVSLGSNGVEEIVEWDLDDYEQDLMADAAEKLSDQYDKIS | soluble
MAHHHHHHMGTLEAQTQGPGSMQKNMVETEPVQGCRDFPPEAMRCRRHLFDVFHATAKTFGFEEYDAPVLESEELYIRKAGEEITEQMFNFITKGGHRVALRPEMTPSLARLLLGKGRSLLLPAKWYSIPQCWRYEAITRGRRREHYQWNMDIVGVKSVSAEVELVCAACWAMRSLGLSSKDVGIKVNSRKVLQTVVEQAGVTSDKFAPVCVIVDKMEKIPREEVEAQLAVLGLEPTVVDAITTTLSLKSIDEIAQRVGEEHEAVKELRQFFEQVEAYGYGDWVLFDASVVRGLAYYTGIVFEGFDREGKFRALCGGGRYDNLLTTYGSPTPIPCAGFGFGDCVIVELLQEKRLLPDIPHVVDDVVIPFDESMRPHALAVLRRLRDAGRSADIILDKKKVVQAFNYADRVGAVRAVLVAPEEWERGEVQVKMLREGTGKEEGGAERGFAVPLDRLV | soluble
MSLTKILIGQTAGFTGPAGEQVKEMTRGAQLYLDAVNRAGGVYGRRIELISEDDGFDANVSKQRAHTLLTDKQVFALFLSRGTPNTEAIMSEAHAVGAPMVAPSTGASIFFDRPDPLVFVVRAKYQTEIAELVHHFETLGLKRLALVNVNDSFGKDTEAGFTTATQHLPPSTHQIVTVDRLKPNIETATAEIGKFAPNAVILACAGTTAQALAEALTKHGTVSQMATLSNNSSTAFARSLGNMARGMMVTQVMPSPVRATSPIGRELTASAKAAGVMPSYGMMEGYASAKLLVEGLKRAGKAPTRASFVAGLEAAGTIDLGGLDIRNGRNNHKGSSFVEITVIGPHGTFIKEGHHHHHH | not soluble
MSLTARIDQLLLERLKSAGVEPAPAADDGEFLRRAYLDLSGTIPPVAITRDYLADSSPAKRRQLIERLLASPAFASHLASTWREIILKPTDDFQQLQNQFALQAWLREQFSENARYDRIVEQFITASSEQDGPVYFYDALDLKPEQLAAETSRIFLGLHIQCAECHDHPFDDWKQRDFWGYAAFFARVAKRDSAMGRISEGHHHHHH | soluble
